One block for each molecule: values may come before it.
What was measured:
[1] = system: IkappaB alpha (NF-kappaB pathway); assay: NF-kappaB pathway activation: IkappaB alpha phosphorylation in WEHI-231 cells; assay type: cell-based; details: 0.7 μg per 5×10^6 WEHI-231 cells, 0, 2, 5 minutes
Experimental: The ability of both human and murine interleukin 17E to activate proteins in the Nuclear Factor-kappa B (NF-kappaB) pathway was examined using the B cell lymphoma cell line WEHI-231. […] Activation of the NK-kappaB pathway was assessed by increased phosphorylation of the protein IkappaB alpha. […] The activation of NF-kappa B is associated with the phosphorylation of IkappaB alpha in response to certain stimuli.
(§1) A total 5×10^6 cells per sample were stimulated with 0.7 μg of either human IL-17E (hIL-17E) or murine IL-17E (mIL-17E) at 37° C. Cells were lysed at time points t=0, 2, and 5 minutes in lysis buffer for 30 minutes on ice, followed by centrifugation for 10 minutes. Samples containing approximately 40 μg of protein were separated by SDS-PAGE, followed by transfer to membranes for Western blotting.
Blots were incubated with rabbit anti-phospho-IkappaB-alpha antibodies, followed by horesradish peroxidase (HRP)-conjugated anti-rabbit antibodies. Blots were exposed to autoradiography film and developed to detect phosphorylated IkB (at approximately 41 kD) by chemiluminescence.
(§2) To assess equivalence in protein loading among lanes in both experiments, blots were stripped of antibodies and incubated with mouse anti-GAPDH antibodies and HRP-conjugated anti-mouse antibodies, followed by chemiluminescence-based detection.

murine IL-17E receptor = biological target: T1, murine IL-17E receptor (Mus musculus, UniProt Q9JIP3); assay: FACS binding to IL-17E receptor on pre-B cell line 70Z/3; details: 1 μg/10^6 cells, 30 minutes at 4° C.
T1 construct: murine IL-17E receptor present on the pre-B cell line 70Z/3; endogenous in cells; host or cells: murine pre-B cell line 70Z/3
T1 sequence (Q9JIP3 18-499): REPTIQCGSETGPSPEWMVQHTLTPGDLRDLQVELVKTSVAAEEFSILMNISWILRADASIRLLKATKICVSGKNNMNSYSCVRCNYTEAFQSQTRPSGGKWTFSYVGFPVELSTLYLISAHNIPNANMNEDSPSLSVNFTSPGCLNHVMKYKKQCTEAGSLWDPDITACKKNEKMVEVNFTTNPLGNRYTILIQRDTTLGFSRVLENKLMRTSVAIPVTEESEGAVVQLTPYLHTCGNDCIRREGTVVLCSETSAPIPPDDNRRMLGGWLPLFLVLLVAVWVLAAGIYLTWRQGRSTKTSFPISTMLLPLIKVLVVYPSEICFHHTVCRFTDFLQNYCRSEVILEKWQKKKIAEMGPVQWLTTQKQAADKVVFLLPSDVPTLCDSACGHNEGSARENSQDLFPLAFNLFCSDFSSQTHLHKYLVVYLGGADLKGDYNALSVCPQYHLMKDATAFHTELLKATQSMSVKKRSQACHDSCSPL
Experimental: The ability of human and murine interleukin 17E to bind to the IL-17E receptor was examined using the murine pre-B cell line 70Z/3 (Paige, C. J., et al. (1981) Nature 292:631-3).
1×10^6 70Z/3 cells/sample were incubated with either murine or human IL-17E (1 μg/10^6 cells) for 30 minutes at 4° C. After washing twice, cells that had been incubated with murine IL-17E were incubated with biotin-conjugated goat anti-mouse IL17E and phycoerythrin (PE)-Cy5.5-conjugated streptavidin. Cells that had been incubated with human IL-17E were incubated with biotin-conjugated goat anti-human IL17E-biotin and phycoerythrin (PE)-Cy5.5-conjugated streptavidin. As negative controls, cells were stained with antibodies as described without preincubation with human or murine IL-17E. Samples were then fixed with 0.5% paraformaldehyde prior to FACS analysis.

[2] = system: B cell linker protein BLNK; assay: BLNK phosphorylation in B cell lymphoma cell line WEHI-231 (Western blot); assay type: cell-based; details: 0.21 μg per 1.5×10^6 WEHI-231 cells, 0, 2, 5 minutes
Text: The effect of IL-17E on activation of signaling pathways in B cells was examined using the B cell lymphoma cell line WEHI-231 (Lanier L. L., et al. (1981) J. Immunol. 126:626-31). Specifically, the activation status of the protein tyrosine kinase Lyn and the B cell linker protein BLNK (Tsubata, T., et al., (2001) Int Rev Immunol 20:675-8) were examined. An increased level of the phosphorylated forms of these proteins is indicative of activation.
as §1, with “of 1.5×10^6” for “5×10^6”, “stimulated in vitro” for “stimulated”, “0.21” for “0.7”, “IL-17E” for “IL-17E (hIL-17E)”, “IL17E” for “IL-17E (mIL-17E)”, “25” for “40”
For detection of phosphorylated BLNK, Western blots were incubated with rabbit anti-phospho-BLNK antibodies, followed by horseradish peroxidase (HRP)-conjugated anti-rabbit antibodies.
as §2

binding to murine IL-17E receptor on 70Z/3 cells (FACS) (murine IL-17E receptor): bound
B1: murine IL-17E: Murine IL-17E from R&D Systems; predominant form starting at Val 17 of GenBank NP 542767 (protein)
chain: VSLRIQEGCSHLPSCCPSKEQEPPEEWLKWSSASVSPPEPLSHTHHAESCRASKDGPLNSRAISPWSYELDRDLNRVPQDLYHARCLCPHCVSLQTGSHMDPLGNSVPLYHNQTVFYRRPCHGEEGTHRRYCLERRLYRVSLACVCVRPRVMA
levels of phosphorylated IkappaB alpha (p-IkB-α) [1]: increased
levels of phosphorylated BLNK protein [2]: increased

binding to murine IL-17E receptor on 70Z/3 cells (FACS) (murine IL-17E receptor): bound
B2: human IL-17E: Recombinant human IL-17E from PeproTech; two 145 amino acid chains, predominant form starting at Tyr 33 of GenBank AAG40848 (protein, listed as Homo sapiens)
chain: YSHWPSCCPSKGQDTSEELLRWSTVPVPPLEPARPNRHPESCRASEDGPLNSRAISPWRYELDRDLNRLPQDLYHARCLCPHCVSLQTGSHMDPRGNSELLYHNQTVFYRRPCHGEKGTHKGYCLERRLYRVSLACVCVRPRVMG
levels of phosphorylated IkappaB alpha (p-IkB-α) [1]: increased
levels of phosphorylated BLNK protein [2]: increased

— US8287851B2, “Use of interleukin 17E for the treatment of cancer” (Lorus Therapeutics Inc., priority 2005, dated 2012)
